These results are taken from doi:10.1101/2022.03.06.483192.

Values joined by “and” are separate entries in the source; they are usually repeats but may differ in a detail not shown here. Equal values may be shown once.

Assay [1] has as its target MBP-SYCP1αNcore (UniProt Q15431). Kind of assay: SEC-MALS.
Assay [2] addresses SYCP1αNcore (UniProt Q15431). Kind of assay: SEC-MALS.
The target in assay [3] is SYCP1αNcore (UniProt Q15431). Kind of assay: ITC.
Assay [4] concerns the target SYCP1αN (UniProt Q15431). Kind of assay: SEC-MALS.

SYCP1αNcore, sequence (Q15431 206-362): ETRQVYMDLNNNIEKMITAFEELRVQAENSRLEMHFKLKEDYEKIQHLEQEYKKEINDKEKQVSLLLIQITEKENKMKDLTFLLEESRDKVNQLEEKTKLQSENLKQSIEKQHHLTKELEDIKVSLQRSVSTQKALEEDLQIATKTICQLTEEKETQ
MBP-SYCP1αNcore, sequence (Q15431 206-362): as above
SYCP1αN, sequence (Q15431 101-362): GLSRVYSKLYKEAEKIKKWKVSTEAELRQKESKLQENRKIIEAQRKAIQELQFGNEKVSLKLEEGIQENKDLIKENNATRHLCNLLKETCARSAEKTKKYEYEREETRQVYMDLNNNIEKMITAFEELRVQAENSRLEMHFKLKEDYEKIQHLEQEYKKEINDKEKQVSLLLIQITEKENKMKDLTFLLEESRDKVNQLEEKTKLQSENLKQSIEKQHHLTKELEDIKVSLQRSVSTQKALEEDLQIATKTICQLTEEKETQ

Turning to “MBP-SYCE3 (from UniProt A1L190 11-81) (natural protein)”, the stoichiometry N (SYCP1 chains per SYCE3 chain) in assay [1] and in assay [2] was 2 throughout.

The substance “SYCE3 P53Q (from UniProt A1L190 11-81) (natural protein)” displayed a stoichiometry N (SYCP1 chains per SYCE3 chain) in assay [2] of 2.

On to “SYCE3 W41E Y44E (from UniProt A1L190 11-81) (natural protein)”, for which, in assay [3], the KD, single replicate was 16 nM and 10 nM and 22 nM. This substance returned a dissociation constant (Kd) in assay [3] of 16 nM. The stoichiometry N (SYCP1 chains per SYCE3 chain) in assay [4] and in assay [2] was 2 in each case.
